From article PMC8390553, “The DNA-binding protein CST associates with the cohesin complex and promotes chromosome cohesion” (The Journal of Biological Chemistry, 2021)

T1: STN1, endogenous (HeLa) (human (endogenous in HeLa), UniProt Q9H668 1-368)
T1 construct: STN1 (OBFC1), subunit of the CST complex, endogenous; also called OBFC1; source: endogenous, in fixed HeLa 1.2.11 cells
T1 sequence (looked up): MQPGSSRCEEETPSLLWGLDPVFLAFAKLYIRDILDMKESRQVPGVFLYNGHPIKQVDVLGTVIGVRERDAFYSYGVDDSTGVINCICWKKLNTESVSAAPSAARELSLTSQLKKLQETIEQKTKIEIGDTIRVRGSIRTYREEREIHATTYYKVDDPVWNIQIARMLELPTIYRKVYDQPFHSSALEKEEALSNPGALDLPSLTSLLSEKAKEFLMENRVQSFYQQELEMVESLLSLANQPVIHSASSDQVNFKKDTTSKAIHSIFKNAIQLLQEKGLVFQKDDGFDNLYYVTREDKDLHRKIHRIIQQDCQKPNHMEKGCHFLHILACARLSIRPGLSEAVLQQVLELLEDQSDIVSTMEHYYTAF


Target: T1, STN1, endogenous (HeLa)
Test: proximity ligation; fixed HeLa 1.2.11 cells, Duolink PLA kit, antibodies to the endogenous proteins (mouse α-STN1 with rabbit α-SMC3, α-PolA1 or α-MCM7); untreated cells, and for STN1 with SMC3 also after HU (2 mM, 2 h), APH (1 μM, 2 h) or CPT (1 μM, 1 h)
Conditions: partners not purified

Binder	PLA foci per cell (average) [foci per cell]	fold increase in PLA foci after HU, APH or CPT against untreated cells [fold]
SMC3, endogenous (HeLa) (natural protein, human (endogenous in HeLa), UniProt Q9UQE7 1-1217, looked up, SMC3, core subunit of the cohesin complex, endogenous; also called cohesin subunit; source: endogenous, in fixed HeLa 1.2.11 cells) MYIKQVIIQGFRSYRDQTIVDPFSSKHNVIVGRNGSGKSNFFYAIQFVLSDEFSHLRPEQRLALLHEGTGPRVISAFVEIIFDNSDNRLPIDKEEVSLRRVIGAKKDQYFLDKKMVTKNDVMNLLESAGFSRSNPYYIVKQGKINQMATAPDSQRLKLLREVAGTRVYDERKEESISLMKETEGKREKINELLKYIEERLHTLEEEKEELAQYQKWDKMRRALEYTIYNQELNETRAKLDELSAKRETSGEKSRQLRDAQQDARDKMEDIERQVRELKTKISAMKEEKEQLSAERQEQIKQRTKLELKAKDLQDELAGNSEQRKRLLKERQKLLEKIEEKQKELAETEPKFNSVKEKEERGIARLAQATQERTDLYAKQGRGSQFTSKEERDKWIKKELKSLDQAINDKKRQIAAIHKDLEDTEANKEKNLEQYNKLDQDLNEVKARVEELDRKYYEVKNKKDELQSERNYLWREENAEQQALAAKREDLEKKQQLLRAATGKAILNGIDSINKVLDHFRRKGINQHVQNGYHGIVMNNFECEPAFYTCVEVTAGNRLFYHIVDSDEVSTKILMEFNKMNLPGEVTFLPLNKLDVRDTAYPETNDAIPMISKLRYNPRFDKAFKHVFGKTLICRSMEVSTQLARAFTMDCITLEGDQVSHRGALTGGYYDTRKSRLELQKDVRKAEEELGELEAKLNENLRRNIERINNEIDQLMNQMQQIETQQRKFKASRDSILSEMKMLKEKRQQSEKTFMPKQRSLQSLEASLHAMESTRESLKAELGTDLLSQLSLEDQKRVDALNDEIRQLQQENRQLLNERIKLEGIITRVETYLNENLRKRLDQVEQELNELRETEGGTVLTATTSELEAINKRVKDTMARSEDLDNSIDKTEAGIKELQKSMERWKNMEKEHMDAINHDTKELEKMTNRQGMLLKKKEECMKKIRELGSLPQEAFEKYQTLSLKQLFRKLEQCNTELKKYSHVNKKALDQFVNFSEQKEKLIKRQEELDRGYKSIMELMNVLELRKYEAIQLTFKQVSKNFSEVFQKLVPGGKATLVMKKGDVEGSQSQDEGEGSGESERGSGSQSSVPSVDQFTGVGIRVSFTGKQGEMREMQQLSGGQKSLVALALIFAIQKCDPAPFYLFDEIDQALDAQHRKAVSDMIMELAVHAQFITTTFRPELLESADKFYGVKFRNKVSHIDVITAEMAKDFVEDDTTHG	~6	~2
PolA1, subunit of DNA polymerase α-primase, endogenous (HeLa) (natural protein, human (endogenous in HeLa), UniProt P09884 1-1462, looked up, PolA1, subunit of DNA polymerase α-primase, endogenous; the subunit to which the PLA antibody was directed; The results name the partner as the complex DNA polymerase α-primase; the antibody of the PLA was against PolA1; source: endogenous, in fixed HeLa 1.2.11 cells) MAPVHGDDSLSDSGSFVSSRARREKKSKKGRQEALERLKKAKAGEKYKYEVEDFTGVYEEVDEEQYSKLVQARQDDDWIVDDDGIGYVEDGREIFDDDLEDDALDADEKGKDGKARNKDKRNVKKLAVTKPNNIKSMFIACAGKKTADKAVDLSKDGLLGDILQDLNTETPQITPPPVMILKKKRSIGASPNPFSVHTATAVPSGKIASPVSRKEPPLTPVPLKRAEFAGDDVQVESTEEEQESGAMEFEDGDFDEPMEVEEVDLEPMAAKAWDKESEPAEEVKQEADSGKGTVSYLGSFLPDVSCWDIDQEGDSSFSVQEVQVDSSHLPLVKGADEEQVFHFYWLDAYEDQYNQPGVVFLFGKVWIESAETHVSCCVMVKNIERTLYFLPREMKIDLNTGKETGTPISMKDVYEEFDEKIATKYKIMKFKSKPVEKNYAFEIPDVPEKSEYLEVKYSAEMPQLPQDLKGETFSHVFGTNTSSLELFLMNRKIKGPCWLEVKSPQLLNQPVSWCKVEAMALKPDLVNVIKDVSPPPLVVMAFSMKTMQNAKNHQNEIIAMAALVHHSFALDKAAPKPPFQSHFCVVSKPKDCIFPYAFKEVIEKKNVKVEVAATERTLLGFFLAKVHKIDPDIIVGHNIYGFELEVLLQRINVCKAPHWSKIGRLKRSNMPKLGGRSGFGERNATCGRMICDVEISAKELIRCKSYHLSELVQQILKTERVVIPMENIQNMYSESSQLLYLLEHTWKDAKFILQIMCELNVLPLALQITNIAGNIMSRTLMGGRSERNEFLLLHAFYENNYIVPDKQIFRKPQQKLGDEDEEIDGDTNKYKKGRKKAAYAGGLVLDPKVGFYDKFILLLDFNSLYPSIIQEFNICFTTVQRVASEAQKVTEDGEQEQIPELPDPSLEMGILPREIRKLVERRKQVKQLMKQQDLNPDLILQYDIRQKALKLTANSMYGCLGFSYSRFYAKPLAALVTYKGREILMHTKEMVQKMNLEVIYGDTDSIMINTNSTNLEEVFKLGNKVKSEVNKLYKLLEIDIDGVFKSLLLLKKKKYAALVVEPTSDGNYVTKQELKGLDIVRRDWCDLAKDTGNFVIGQILSDQSRDTIVENIQKRLIEIGENVLNGSVPVSQFEINKALTKDPQDYPDKKSLPHVHVALWINSQGGRKVKAGDTVSYVICQDGSNLTASQRAYAPEQLQKQDNLTIDTQYYLAQQIHPVVARICEPIDGIDAVLIATWLGLDPTQFRVHHYHKDEENDALLGGPAQLTDEEKYRDCERFKCPCPTCGTENIYDNVFDGSGTDMEPSLYRCSNIDCKASPLTFTVQLSNKLIMDIRRFIKKYYDGWLICEEPTCRNRTRHLPLQFSRTGPLCPACMKATLQPEYSDKSLYTQLCFYRYIFDAECALEKLTTDHEKDKLKKQFFTPKVLQDYRKLKNTAEQFLSRSGYSEVNLSKLFAGCAVKS	2.5	
